Laboratory results taken from patent publication US20080119384A1 (Janssen / Centocor, published 2008).
Non-standard residues stand in square brackets, D forms with d. No end group written: not given here. MPEG = methoxypoly(ethylene glycol), ~20,000 Da; 2Nal = N[C@@H](Cc1ccc2ccccc2c1)C(=O)O; Sar = CNCC(=O)O

Target: T1, human TPO receptor, c-mpl (hTPOr) (human, UniProt P40238 26-635)
T1 sequence (looked up): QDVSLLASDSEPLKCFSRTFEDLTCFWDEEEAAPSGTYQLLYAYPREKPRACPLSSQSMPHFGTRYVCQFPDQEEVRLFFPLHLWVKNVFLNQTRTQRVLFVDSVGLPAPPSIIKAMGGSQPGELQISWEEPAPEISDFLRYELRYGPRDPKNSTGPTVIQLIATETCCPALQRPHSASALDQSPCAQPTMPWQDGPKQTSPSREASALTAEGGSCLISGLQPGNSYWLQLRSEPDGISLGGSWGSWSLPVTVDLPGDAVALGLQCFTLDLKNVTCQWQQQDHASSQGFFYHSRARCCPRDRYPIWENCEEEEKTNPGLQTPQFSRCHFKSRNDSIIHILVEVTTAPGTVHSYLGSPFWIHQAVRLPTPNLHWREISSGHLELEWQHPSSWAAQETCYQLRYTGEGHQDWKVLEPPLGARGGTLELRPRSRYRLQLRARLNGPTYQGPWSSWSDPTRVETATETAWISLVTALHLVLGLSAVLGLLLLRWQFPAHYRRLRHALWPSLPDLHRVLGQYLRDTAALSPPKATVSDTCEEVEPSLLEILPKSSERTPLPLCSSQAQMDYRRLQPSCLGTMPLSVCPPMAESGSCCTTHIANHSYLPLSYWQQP
Experiment: cell-based or functional assay

B1: PEGylated TPO Compound No. 1 (peptide)
peptide: {MPEG}-IEGPTLRQ[2Nal]LAAR[Sar]K[Sar]RAAL[2Nal]QRLTPGEI
modifications: not fully specified (C-terminus); printed as (MPEG-Ile-Glu-Gly-Pro-Thr-Leu-Arg-Gln-(2-Nal)-Leu-Ala-Ala-Arg-(Sar))2-Lys-NH2; also: branched dimer: two 14-mers joined at their C-termini to Lys alpha and epsilon amines, residues 16-29 written C→N, Ile29 is the second N-terminus bearing MPEG, Lys C-terminal amide (lysinamide)
B1 was tested, and the “EC50, luciferase reporter (fos promoter) in Baf/3 cells expressing human TPO-R” value was ~5 pM.
